One may read the Kd as the free concentration of one partner at which half of the binding sites on the other are occupied at equilibrium, for simple one-to-one binding. Read a high Kd as a looser complex.

Assay in all cases: BLI
Test [1] concerns the target T1, anti-idiotype vNAR-Fc variant S7 (bamboo shark).
T1 chain: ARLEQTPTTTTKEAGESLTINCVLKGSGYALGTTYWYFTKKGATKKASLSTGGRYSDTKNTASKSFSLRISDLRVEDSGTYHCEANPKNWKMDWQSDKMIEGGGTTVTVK

Test [2] deals with T2, anti-idiotype vNAR-Fc variant S9 (bamboo shark, biotin (EZ-Link Sulfo-NHS-LC-Biotin) in the cellular binding assay only).
T2 chain: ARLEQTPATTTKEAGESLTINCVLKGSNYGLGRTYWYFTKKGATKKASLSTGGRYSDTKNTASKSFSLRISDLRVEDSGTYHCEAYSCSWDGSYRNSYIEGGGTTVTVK

For test [3], the target named is T3, anti-idiotype vNAR-Fc variant S4 (bamboo shark).
T3 chain: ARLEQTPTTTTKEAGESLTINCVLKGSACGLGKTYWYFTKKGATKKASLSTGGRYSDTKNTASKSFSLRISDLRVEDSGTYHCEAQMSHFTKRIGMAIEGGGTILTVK

For test [4], the target named is T4, anti-idiotype vNAR-Fc variant S2 (bamboo shark, biotin (EZ-Link Sulfo-NHS-LC-Biotin) in the cellular binding assay only).
T4 chain: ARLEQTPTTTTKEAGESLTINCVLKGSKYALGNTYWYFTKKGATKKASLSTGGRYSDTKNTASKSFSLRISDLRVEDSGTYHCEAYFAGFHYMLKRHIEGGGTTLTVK

B1: soluble recombinant B-cell receptor (BCR) of lymphoma cell line SUP-B8, produced as full-length IgG (antibody, V domains shown)
VH: LVQSGGEVKKPGASVKVSCKASGYTFHSYGITWVRQAPGQGLEWMGWINGYNGYTNYAQKLQDRVTMTTNTSTNTVYMEVRSLRSDDTAVYYCARDDCSGDNCYMSAYWGQGTVVTVSS
VL: QSVLTQPPSASGTPGQRVTISCSGSSSNIASNYVYWYQQLPGMAPKLLIYRDNQRPSGVPDRFSGSRSGTSASLAISGLRSDDEADYYCATWDDSLSGWVFGGGTKLTVL
For B1, the Kd in test [1] turned out to be 1.9 nM; in test [2], 11 nM; in test [3] it was 5.3 nM; in test [4] it was 4.5 nM.
